# Measured values: PMC7801428 (Nature Communications, 2021)
# B1: human-mouse chimeric antibody 3C1 (c3C1) (antibody, V domains shown)
# VH: EVQLQESGPSLVKPSQTLSLTCSVTGDSITNGYWNWIRKFPGNKLEYMGYISYSGSTYYSPSLKSRISITRDTSKNQHYLQLNSVTSEDTATYYCASDYHGSKYYFDYWGQGTTLTVSS
# VL: DIVMTQSHKFMSTSVGHRVSITCKASQDVGNDVAWYQQKPGQSPKLLIYWASTRHTGVPDRFTGSGSGTDFTLTISNVQSEDLADYFCQQYNRYPYTFGGGTKLEIK
# notes: also called chimeric MAb c3C1
# Biological target: SARS-CoV-2 S trimer (stabilized S ectodomain, residues 1-1208, proline substitutions at 986 and 987, GSAS at … (SARS-CoV-2, Wuhan-Hu-1, proline substitution at residue 986 | proline substitution at residue 987 | …, biotin (EZ-Link Sulfo-NHS-LC-LC-Biotin) in the BLI experiments; not labelled for cryo-EM)
# Test: BLI
# Conditions: both partners purified
binder,measurement,value
B1,Kd,< 1 pM
